Results on one molecule are retold here after patent publication US20230272071A1 (ARIZONA BOARD OF REGENTS ON BEHALF OF THE UNIVERSITY OF …, published 2023).

Assay [1] deals with T1, recombinant huCD19 (BioLegend) (human, UniProt P15391 20-291, limits assumed).
T1 construct: Bought reagent; also called rhuCD19
T1 sequence (looked up): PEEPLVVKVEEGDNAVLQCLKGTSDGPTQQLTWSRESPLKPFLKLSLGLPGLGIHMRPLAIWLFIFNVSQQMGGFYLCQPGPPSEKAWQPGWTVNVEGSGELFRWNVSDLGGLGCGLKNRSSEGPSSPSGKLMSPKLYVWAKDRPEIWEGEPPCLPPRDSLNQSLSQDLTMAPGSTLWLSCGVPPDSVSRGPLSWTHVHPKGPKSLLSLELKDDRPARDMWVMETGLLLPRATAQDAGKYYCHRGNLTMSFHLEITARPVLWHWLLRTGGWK
Description: plate coated with 4 ug/ml recombinant huCD19, BMiMS supernatant, washed; retention read through IL-2 of 5c.c7 T cells. The procedure:
An experiment was designed to determine whether BMiMS can bind huCD19 and stimulate CD4+ T cells. See FIG. 9A. pMHCII-based BMiMS were made with the moth cytochrome c […] peptide (MCC) tethered with a flexible linker to I-E^k (MCC:I-E^k) which is recognized by the 5c.c7 TCR. For a pilot experiment, the wells of a 96-well plate were coated with 4 μg/ml recombinant huCD19 (BioLegend). The wells were washed and then incubated with concentrated supernatant from cells expressing pMHCII-BMiMS, CD80-BMiMS, or both. Naive 5c.c7+CD4+ T cells from 5c.c7 TCR transgenic mice (RagKO) were then incubated for 18 hr in the wells prior to harvesting of the supernatant for measurement of IL-2 by ELISA. No IL-2 was produced by cells cultured in wells with huCD19 only or the huCD19+CD80 BMiMS. IL-2 was produced by T cells cultured in wells with huCD19+pMHCII-BMiMS, and higher levels of IL-2 were produced by T cells cultured in wells coated with huCD19+pMHCII-BMiMS+CD80-BMiMS.

In assay [2] the target is T2, human CD19 on Ramos cells (B-cell lymphoma) (human, UniProt P15391 20-556).
T2 construct: whole, on cells; also called hCD19
T2 sequence (looked up): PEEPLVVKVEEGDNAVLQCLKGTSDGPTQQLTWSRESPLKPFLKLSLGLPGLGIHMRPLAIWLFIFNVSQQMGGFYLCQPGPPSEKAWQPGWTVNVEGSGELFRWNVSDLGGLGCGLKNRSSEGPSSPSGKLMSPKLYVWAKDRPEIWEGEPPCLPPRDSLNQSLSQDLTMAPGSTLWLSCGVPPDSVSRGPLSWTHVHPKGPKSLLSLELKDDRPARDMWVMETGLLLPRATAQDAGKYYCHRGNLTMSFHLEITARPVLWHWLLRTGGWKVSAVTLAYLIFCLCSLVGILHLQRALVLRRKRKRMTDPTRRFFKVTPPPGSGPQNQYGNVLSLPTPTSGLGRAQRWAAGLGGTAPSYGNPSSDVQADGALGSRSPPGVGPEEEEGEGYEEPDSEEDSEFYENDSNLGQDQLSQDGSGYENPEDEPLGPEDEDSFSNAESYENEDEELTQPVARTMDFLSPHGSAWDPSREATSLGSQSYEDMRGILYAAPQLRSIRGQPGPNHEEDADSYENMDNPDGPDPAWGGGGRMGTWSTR
In words: flow cytometry of Ramos cells incubated with M12 supernatant, detected with PE anti-mouse I-A/I-E. The procedure:
Ramos cells were incubated with culture media (negative control) or supernatant from M12 cells expressing BMiMS, then stained with fluorophore conjugated antibodies against the indicated immune molecules and analyzed by flow cytometry.
M12 cells were cultured to confluency (1-2×10⁶ cells/mL) in complete RPMI (5% FCS) and the supernatant was harvested for analysis as described above. Ramos cells were harvested, washed, and 1×10⁶ were incubated with media (negative control) or 0.250 mL of concentrated (50 mL down to 0.250 mL in Amicon Ultra 15 10 kDa (Millipore)) M12 cell culture supernatant at 4° C. for 1 hour. After washing, cells were stained with PE conjugated anti-mouse I-A/I-E (clone M5/14. 15.2, eBiosciences), PE conjugated anti-mCD80 (clone 16-10A1, BioLegend), anti-mCD86 (clone GL-1, BioLegend) or anti-mlCAM-1 (clone YN1/1.7.4, eBioscience) and analyzed by flow cytometry.

B1: mMHCII-Anti-hCD19 BMiMS (MCC:I-E^k fused to anti-hCD19 AltIg Fv of mAb B43, opened C-C' loop) (other)
MHC II alpha: CIKEEHTIIQAEFYLLPDKRGEFMFDFDGDEIFHVDIEKSETIWRLEEFAKFASFEAQGALANIAVDKANLDVMKERSNNTPDANVAPEVTVLSRSPVNLGEPNILICFIDKFSPPVVNVTWLRNGRPVTEGVSETVFLPRDDHLFRKFHYLTFLPSTDDFYDCEVDHWGLEEPLRKHWEFEEKTLLPETKESRGGLEVLFQGPEFGGSTTAPSAQLEKELQALEKENAQLEWELQALEKELAQAAAGQPPKLLIYDASNLVSGIPPRFSGSGSGTDFTLNIHPVEKVDAATYHCQQSTEDPWTFGGGTKLEIKSPGSGGGGSGGGGSGGGGSSGELVLTQSPASLAVSLGQRATISCKASQSVDYDGDSYLNWYQQIGGGGSHHHHHH
MHC II beta: CADPSGSANERADLIAYLKQATKEFRSGGGGSLVPRGSGGGGSVDRPWFLEYCKSECHFYNGTQRVRLLVRYFYNLEENLRFDSDVGEFRAVTELGRPDAENWNSQPEFLEQKRAEVDTVCRHNYEIFDNFLVPRRVEPTVTVYPTKTQPLEHHNLLVCSVSDFYPGNIEVRWFRNGKEEKTGIVSTGLVRNGDWTFQTLVMLETVPQSGEVYTCQVEHPSLTDPVTVEWKAQSTSAQNKSRGGLEVLFQGPEFGGSTTAPSAQLKKKLQALKKKNAQLKWKLQALKKKLAQAAAGQGLEWIGQIWPGDGDTNYNGKFKGKATLTADESSSTAYMQLSSLRSEDSAVYSCARRETTTVGRYYYAMDYWGQGTTVTSPGSGGGGSGGGGSGGGGSSGQVQLLESGAELVRPGSSVKISCKASGYAFSSYWMNWVKQRGGGGSHHHHHH
notes: Heterodimer secreted by M12 cells, used as concentrated culture supernatant; also called pMHCII-BMiMS; pMHCII-based BMiMS
Consider B1, for which the binding result in assay [1] and in assay [2] was “binds” in each case.
